Experiments:
[1] = biological target: T1, Cre recombinase monomer with Q311R mutation
T1 chain: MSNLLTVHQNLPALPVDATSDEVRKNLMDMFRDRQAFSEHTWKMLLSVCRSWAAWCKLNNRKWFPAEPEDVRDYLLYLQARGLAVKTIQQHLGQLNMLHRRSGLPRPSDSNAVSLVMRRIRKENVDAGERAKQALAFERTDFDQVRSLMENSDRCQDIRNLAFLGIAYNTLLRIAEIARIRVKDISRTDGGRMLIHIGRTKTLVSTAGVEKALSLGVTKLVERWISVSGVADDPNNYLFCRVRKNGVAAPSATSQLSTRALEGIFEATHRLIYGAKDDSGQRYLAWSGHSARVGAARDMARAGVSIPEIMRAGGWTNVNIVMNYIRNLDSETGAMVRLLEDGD

[2] = biological target: T2, Cre recombinase monomer with R292Q mutation
T2 chain: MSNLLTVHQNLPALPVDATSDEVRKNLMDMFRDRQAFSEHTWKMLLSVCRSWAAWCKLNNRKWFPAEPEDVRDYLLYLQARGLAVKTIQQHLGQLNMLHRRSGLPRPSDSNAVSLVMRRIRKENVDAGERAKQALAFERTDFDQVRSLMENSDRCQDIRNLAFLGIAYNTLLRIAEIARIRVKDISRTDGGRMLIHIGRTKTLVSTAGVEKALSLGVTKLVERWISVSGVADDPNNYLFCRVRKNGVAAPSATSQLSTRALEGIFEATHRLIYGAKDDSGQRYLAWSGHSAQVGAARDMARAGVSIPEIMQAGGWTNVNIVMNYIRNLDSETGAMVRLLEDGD

[3] = biological target: T3, Cre recombinase monomer with R292G mutation
T3 chain: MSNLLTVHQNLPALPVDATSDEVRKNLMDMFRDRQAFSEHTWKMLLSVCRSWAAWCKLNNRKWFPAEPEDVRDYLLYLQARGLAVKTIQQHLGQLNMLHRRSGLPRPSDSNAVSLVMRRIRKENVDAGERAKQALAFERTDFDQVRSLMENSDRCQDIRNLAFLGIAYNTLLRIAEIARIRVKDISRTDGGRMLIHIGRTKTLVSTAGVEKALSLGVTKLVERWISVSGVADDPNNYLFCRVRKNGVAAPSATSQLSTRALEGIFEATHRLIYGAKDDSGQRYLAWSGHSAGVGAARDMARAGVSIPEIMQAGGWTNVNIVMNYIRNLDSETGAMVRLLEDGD

[4] = biological target: T4, Cre recombinase monomer with W315I mutation
T4 chain: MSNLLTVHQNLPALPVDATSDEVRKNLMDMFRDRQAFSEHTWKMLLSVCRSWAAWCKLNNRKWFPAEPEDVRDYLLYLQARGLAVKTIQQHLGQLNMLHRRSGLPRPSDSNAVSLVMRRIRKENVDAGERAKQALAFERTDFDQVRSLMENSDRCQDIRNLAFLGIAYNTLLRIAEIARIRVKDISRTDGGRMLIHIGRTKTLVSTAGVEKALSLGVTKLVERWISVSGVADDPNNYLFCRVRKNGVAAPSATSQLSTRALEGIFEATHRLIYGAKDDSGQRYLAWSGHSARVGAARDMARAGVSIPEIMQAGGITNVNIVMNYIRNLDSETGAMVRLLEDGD

[5] = biological target: T5, Cre recombinase monomer with K201I mutation
T5 chain: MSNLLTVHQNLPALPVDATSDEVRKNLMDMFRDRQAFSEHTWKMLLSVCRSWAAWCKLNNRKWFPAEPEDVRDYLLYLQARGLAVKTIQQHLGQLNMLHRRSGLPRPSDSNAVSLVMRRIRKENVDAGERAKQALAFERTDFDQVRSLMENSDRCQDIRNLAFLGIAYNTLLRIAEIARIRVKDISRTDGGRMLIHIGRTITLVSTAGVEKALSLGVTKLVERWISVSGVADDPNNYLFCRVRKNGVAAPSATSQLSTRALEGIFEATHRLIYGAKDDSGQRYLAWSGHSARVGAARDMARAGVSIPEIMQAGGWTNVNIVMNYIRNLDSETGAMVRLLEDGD

[6] = biological target: T6, Cre recombinase monomer with K201R mutation
T6 chain: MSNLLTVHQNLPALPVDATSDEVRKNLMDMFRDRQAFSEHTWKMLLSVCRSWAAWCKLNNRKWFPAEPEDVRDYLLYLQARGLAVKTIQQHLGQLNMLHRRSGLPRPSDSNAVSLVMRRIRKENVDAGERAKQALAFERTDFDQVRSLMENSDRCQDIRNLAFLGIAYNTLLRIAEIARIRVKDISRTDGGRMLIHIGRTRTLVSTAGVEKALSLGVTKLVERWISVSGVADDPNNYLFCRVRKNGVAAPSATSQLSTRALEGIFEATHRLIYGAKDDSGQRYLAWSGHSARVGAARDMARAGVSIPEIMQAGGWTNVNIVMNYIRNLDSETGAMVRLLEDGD

[7] = biological target: T7, Cre recombinase monomer with W315R mutation
T7 chain: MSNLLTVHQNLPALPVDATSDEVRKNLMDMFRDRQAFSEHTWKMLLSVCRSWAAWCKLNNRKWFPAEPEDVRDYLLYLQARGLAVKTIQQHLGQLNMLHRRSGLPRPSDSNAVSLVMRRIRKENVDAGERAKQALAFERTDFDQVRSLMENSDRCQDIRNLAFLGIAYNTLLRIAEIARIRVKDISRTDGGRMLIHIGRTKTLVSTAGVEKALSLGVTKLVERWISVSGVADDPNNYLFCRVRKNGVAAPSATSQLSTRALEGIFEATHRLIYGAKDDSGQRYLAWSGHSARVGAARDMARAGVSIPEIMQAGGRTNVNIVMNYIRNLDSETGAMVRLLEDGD

[8] = biological target: T8, Cre recombinase monomer with W315T mutation
T8 chain: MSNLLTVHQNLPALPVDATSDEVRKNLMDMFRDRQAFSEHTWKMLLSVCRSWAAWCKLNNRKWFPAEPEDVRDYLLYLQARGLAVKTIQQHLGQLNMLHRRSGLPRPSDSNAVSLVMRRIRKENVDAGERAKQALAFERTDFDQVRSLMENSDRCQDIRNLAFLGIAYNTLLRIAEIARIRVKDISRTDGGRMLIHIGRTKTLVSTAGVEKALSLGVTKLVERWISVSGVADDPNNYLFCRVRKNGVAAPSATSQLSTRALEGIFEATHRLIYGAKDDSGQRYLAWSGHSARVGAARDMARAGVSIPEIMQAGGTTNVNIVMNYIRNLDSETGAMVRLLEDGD

[9] = biological target: T9, Cre recombinase monomer with Y324C mutation
T9 chain: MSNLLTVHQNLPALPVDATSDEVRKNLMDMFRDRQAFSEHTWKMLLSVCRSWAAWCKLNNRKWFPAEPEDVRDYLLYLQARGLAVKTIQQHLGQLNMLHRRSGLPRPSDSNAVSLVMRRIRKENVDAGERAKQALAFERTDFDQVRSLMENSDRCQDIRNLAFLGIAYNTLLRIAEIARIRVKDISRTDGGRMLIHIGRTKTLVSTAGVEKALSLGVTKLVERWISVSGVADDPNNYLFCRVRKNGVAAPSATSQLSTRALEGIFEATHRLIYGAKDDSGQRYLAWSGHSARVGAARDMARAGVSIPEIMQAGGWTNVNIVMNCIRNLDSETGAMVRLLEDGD

[10] = biological target: T10, Cre recombinase monomer with Y324F mutation
T10 chain: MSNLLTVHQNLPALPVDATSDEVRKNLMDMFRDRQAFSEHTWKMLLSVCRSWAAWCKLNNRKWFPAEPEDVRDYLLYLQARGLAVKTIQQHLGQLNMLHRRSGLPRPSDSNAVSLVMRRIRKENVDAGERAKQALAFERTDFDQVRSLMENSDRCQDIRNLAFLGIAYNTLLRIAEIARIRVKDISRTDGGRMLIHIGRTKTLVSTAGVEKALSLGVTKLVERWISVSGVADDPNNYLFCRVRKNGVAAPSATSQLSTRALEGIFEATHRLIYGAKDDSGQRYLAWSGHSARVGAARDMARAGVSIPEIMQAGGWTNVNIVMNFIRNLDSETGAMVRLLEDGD

[11] = biological target: T11, Cre recombinase monomer with K201P mutation
T11 chain: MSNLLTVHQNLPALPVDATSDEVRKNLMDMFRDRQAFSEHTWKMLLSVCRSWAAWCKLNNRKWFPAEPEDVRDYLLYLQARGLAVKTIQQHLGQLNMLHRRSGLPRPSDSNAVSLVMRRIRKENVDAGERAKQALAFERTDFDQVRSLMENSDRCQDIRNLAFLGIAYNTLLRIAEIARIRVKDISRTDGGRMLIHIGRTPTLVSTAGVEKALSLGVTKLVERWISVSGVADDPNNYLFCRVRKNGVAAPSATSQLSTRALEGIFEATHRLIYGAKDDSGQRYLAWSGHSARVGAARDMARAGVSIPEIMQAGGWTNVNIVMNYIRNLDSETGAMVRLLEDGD

B1: Cre recombinase monomer with K201C mutation (protein)
chain: MSNLLTVHQNLPALPVDATSDEVRKNLMDMFRDRQAFSEHTWKMLLSVCRSWAAWCKLNNRKWFPAEPEDVRDYLLYLQARGLAVKTIQQHLGQLNMLHRRSGLPRPSDSNAVSLVMRRIRKENVDAGERAKQALAFERTDFDQVRSLMENSDRCQDIRNLAFLGIAYNTLLRIAEIARIRVKDISRTDGGRMLIHIGRTCTLVSTAGVEKALSLGVTKLVERWISVSGVADDPNNYLFCRVRKNGVAAPSATSQLSTRALEGIFEATHRLIYGAKDDSGQRYLAWSGHSARVGAARDMARAGVSIPEIMQAGGWTNVNIVMNYIRNLDSETGAMVRLLEDGD
Median dimer activity (recombination on loxP) [1]: 93%
Median dimer activity (recombination on loxP) [2]: 52%

B2: Cre recombinase monomer with K201Q mutation (protein)
chain: MSNLLTVHQNLPALPVDATSDEVRKNLMDMFRDRQAFSEHTWKMLLSVCRSWAAWCKLNNRKWFPAEPEDVRDYLLYLQARGLAVKTIQQHLGQLNMLHRRSGLPRPSDSNAVSLVMRRIRKENVDAGERAKQALAFERTDFDQVRSLMENSDRCQDIRNLAFLGIAYNTLLRIAEIARIRVKDISRTDGGRMLIHIGRTQTLVSTAGVEKALSLGVTKLVERWISVSGVADDPNNYLFCRVRKNGVAAPSATSQLSTRALEGIFEATHRLIYGAKDDSGQRYLAWSGHSARVGAARDMARAGVSIPEIMQAGGWTNVNIVMNYIRNLDSETGAMVRLLEDGD
Median dimer activity (recombination on loxP) [1]: 94%
Median dimer activity (recombination on loxP) [3]: 58%
Median dimer activity (recombination on loxP) [4]: 30%

B3: Cre recombinase monomer with K201F mutation (protein)
chain: MSNLLTVHQNLPALPVDATSDEVRKNLMDMFRDRQAFSEHTWKMLLSVCRSWAAWCKLNNRKWFPAEPEDVRDYLLYLQARGLAVKTIQQHLGQLNMLHRRSGLPRPSDSNAVSLVMRRIRKENVDAGERAKQALAFERTDFDQVRSLMENSDRCQDIRNLAFLGIAYNTLLRIAEIARIRVKDISRTDGGRMLIHIGRTFTLVSTAGVEKALSLGVTKLVERWISVSGVADDPNNYLFCRVRKNGVAAPSATSQLSTRALEGIFEATHRLIYGAKDDSGQRYLAWSGHSARVGAARDMARAGVSIPEIMQAGGWTNVNIVMNYIRNLDSETGAMVRLLEDGD
Median dimer activity (recombination on loxP) [5]: 72%
Median dimer activity (recombination on loxP) [6]: 59%
Median dimer activity (recombination on loxP) [1]: 94%
Median dimer activity (recombination on loxP) [7]: 29%
Median dimer activity (recombination on loxP) [8]: 41%
Median dimer activity (recombination on loxP) [9]: 98%
Median dimer activity (recombination on loxP) [10]: 54%

B4: Cre recombinase monomer with K201D mutation (protein)
chain: MSNLLTVHQNLPALPVDATSDEVRKNLMDMFRDRQAFSEHTWKMLLSVCRSWAAWCKLNNRKWFPAEPEDVRDYLLYLQARGLAVKTIQQHLGQLNMLHRRSGLPRPSDSNAVSLVMRRIRKENVDAGERAKQALAFERTDFDQVRSLMENSDRCQDIRNLAFLGIAYNTLLRIAEIARIRVKDISRTDGGRMLIHIGRTDTLVSTAGVEKALSLGVTKLVERWISVSGVADDPNNYLFCRVRKNGVAAPSATSQLSTRALEGIFEATHRLIYGAKDDSGQRYLAWSGHSARVGAARDMARAGVSIPEIMQAGGWTNVNIVMNYIRNLDSETGAMVRLLEDGD
Median dimer activity (recombination on loxP) [11]: 70%

B5: Cre double mutant CreK201R+Q311R (both mutations in the same monomer) (protein)
chain: MSNLLTVHQNLPALPVDATSDEVRKNLMDMFRDRQAFSEHTWKMLLSVCRSWAAWCKLNNRKWFPAEPEDVRDYLLYLQARGLAVKTIQQHLGQLNMLHRRSGLPRPSDSNAVSLVMRRIRKENVDAGERAKQALAFERTDFDQVRSLMENSDRCQDIRNLAFLGIAYNTLLRIAEIARIRVKDISRTDGGRMLIHIGRTRTLVSTAGVEKALSLGVTKLVERWISVSGVADDPNNYLFCRVRKNGVAAPSATSQLSTRALEGIFEATHRLIYGAKDDSGQRYLAWSGHSARVGAARDMARAGVSIPEIMRAGGWTNVNIVMNYIRNLDSETGAMVRLLEDGD
recombination on loxP excision substrate in E. coli: showed no observable recombination of the loxP target sequence

Source: patent US20230183713A1, “SITE-SPECIFIC RECOMBINASES FOR EFFICIENT AND SPECIFIC GENOME EDITING” (TECHNISCHE UNIVERSITÄt DRESDEN, published 2023)
